Reference: publication PMC11940188

Key:
[1] = biological target: Rho13 (Rhodonellum psychrophilum); experiment: SEC; Superdex-200 Increase, 0.5 mL/min, Ni-NTA eluates after PD-10 desalting; 100 mM HEPES, 150 mM NaCl, 2 mM CaCl2 pH 6.5 or 50 mM MOPS, 50 mM NaCl, 2 mM CaCl2 pH 7.5; calibrated with lysozyme, carbonic anhydrase and BSA; self-association, monomer and dimer
[2] = biological target: Rho13 (Rhodonellum psychrophilum); experiment: SAXS; nominal 1 mg/mL enzyme (Ika2 1.00, Rho13 0.94, I3C6 0.87 mg/mL by Abs280), 25 °C, 1800 s; indirect Fourier transformation and fits to AlphaFold models; self-association
[3] = biological target: Rho13 (Rhodonellum psychrophilum); experiment: SAXS; nominal 0.5 mg/mL enzyme (Ika2 0.51, Rho13 0.46, I3C6 0.46 mg/mL by Abs280), 25 °C, 1800 s; indirect Fourier transformation and fits to AlphaFold models; self-association

share of the combined peak area, dimer peak [1]: 26%
stoichiometry N [1]: 2
dimer concentration in the SAXS model fit [2]: 0.69 mg/mL
monomer concentration in the SAXS model fit [2]: 0.03 mg/mL
n-mers (SAXS model fit) [2]: 1.96
n-mers (indirect Fourier transformation) [2]: 1.58
dimer concentration in the SAXS model fit [3]: 0.29 mg/mL
monomer concentration in the SAXS model fit [3]: 0.06 mg/mL
n-mers (SAXS model fit) [3]: 1.83
n-mers (indirect Fourier transformation) [3]: 1.38
Substance: Rho13 (enzyme)
